# Columns and labels:
# [1] = target: citrullinated histone H2A and H4 present in pre-NETs (A23187-stimulated human neutrophils) (human) (UniProt P0C0S8); experiment: flow cytometry on fixed and permeabilized leukocytes of A23187-stimulated whole blood; detection with goat-anti-human IgG-Alexa Fluor 488; negative control, same value as without antibody
# [2] = target: citrullinated histone H2A and H4 present in pre-NETs (A23187-stimulated human neutrophils) (human) (UniProt P0C0S8); experiment: cell-based or functional assay
# [3] = target: citrullinated histone H2A and H4 present in pre-NETs (A23187-stimulated human neutrophils) (human) (UniProt P0C0S8); experiment: flow cytometry on fixed and permeabilized leukocytes of A23187-stimulated whole blood; detection with goat-anti-human IgG-Alexa Fluor 488
Substance,"% pre-NETs (FITC+ of CD66b+ leukocytes, indicating antibody binding) [1] [%]","NET-inhibitory effect compared to No Ab at 210 min (live imaging fluorescence microscopy, A23187-stimulated neutrophils) [2] [%]",NETs after 210 min (percentage of neutrophils at t=0) [2] [%],"% pre-NETs (FITC+ of CD66b+ leukocytes, indicating antibody binding) [3] [%]"
isotype control antibody,5,–,–,–
CIT-013 (antibody),–,66,8,15

# Source: patent US20240272145A1
